In WO2013078377A1:
pKd: −log10 of the molar value.

Columns and labels:
[1] = biological target: human CD98 as used in ELISA, BIACORE and Octet assays (human) (UniProt P08195); test: Biacore and Octet
[2] = biological target: cynomolgus monkey CD98 as used in SPR, Octet and ELISA (cynomolgus monkey) (UniProt I7GH21); test: Biacore and Octet

Sequence of UniProt P08195 (P08195 206-630 limits assumed, form in doubt): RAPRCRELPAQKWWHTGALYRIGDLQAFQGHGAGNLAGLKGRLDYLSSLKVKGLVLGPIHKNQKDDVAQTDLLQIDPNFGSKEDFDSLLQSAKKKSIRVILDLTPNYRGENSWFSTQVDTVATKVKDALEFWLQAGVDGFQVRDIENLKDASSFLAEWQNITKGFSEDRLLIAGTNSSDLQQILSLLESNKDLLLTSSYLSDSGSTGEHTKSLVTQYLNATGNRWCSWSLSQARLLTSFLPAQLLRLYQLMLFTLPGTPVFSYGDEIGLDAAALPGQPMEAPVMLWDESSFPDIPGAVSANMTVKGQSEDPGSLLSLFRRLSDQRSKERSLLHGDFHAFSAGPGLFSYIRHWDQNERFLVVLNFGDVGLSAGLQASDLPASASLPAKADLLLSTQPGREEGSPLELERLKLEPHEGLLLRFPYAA

pKd [1]: 8.22 to 8.70
pKd [2]: 7.85 to 8.10
Substance: humanized anti-CD98 monoclonal antibody IGN523
